# Data: patent publication US20160333092A1 (ORDER MADE MEDICAL RESEARCH, published 2016)
# T1: human SLC6A6 (solute carrier family 6 (neurotransmitter transporter, taurine), member 6) (human, UniProt P31641 1-620)
# T1 construct: also called native SLC6A6; SLC6A6 on the cell membrane
# T1 sequence: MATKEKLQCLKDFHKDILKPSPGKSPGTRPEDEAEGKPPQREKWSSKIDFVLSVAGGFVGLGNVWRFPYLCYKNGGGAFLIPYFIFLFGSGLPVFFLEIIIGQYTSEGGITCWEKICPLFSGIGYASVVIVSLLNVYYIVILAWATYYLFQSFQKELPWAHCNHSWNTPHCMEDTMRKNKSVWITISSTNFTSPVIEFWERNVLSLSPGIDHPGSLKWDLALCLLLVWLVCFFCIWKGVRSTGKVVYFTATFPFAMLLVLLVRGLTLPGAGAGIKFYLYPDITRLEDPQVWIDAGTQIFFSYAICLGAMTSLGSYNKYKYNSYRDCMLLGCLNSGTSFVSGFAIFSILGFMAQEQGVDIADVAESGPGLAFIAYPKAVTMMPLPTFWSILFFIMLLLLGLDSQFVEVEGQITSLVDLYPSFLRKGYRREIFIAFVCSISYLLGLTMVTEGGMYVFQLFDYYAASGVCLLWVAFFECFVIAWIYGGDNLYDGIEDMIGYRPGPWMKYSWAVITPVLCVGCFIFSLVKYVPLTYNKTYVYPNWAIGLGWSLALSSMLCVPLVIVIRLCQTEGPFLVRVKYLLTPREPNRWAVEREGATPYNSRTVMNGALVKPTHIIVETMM
# T2: partial protein of the extracellular region of SLC6A6 (amino acid residues 143 to 216, E. coli recombinant) (human, UniProt P31641 143-216)
# T2 construct: also called SLC6A6 partial protein; recombinant protein
# T2 sequence: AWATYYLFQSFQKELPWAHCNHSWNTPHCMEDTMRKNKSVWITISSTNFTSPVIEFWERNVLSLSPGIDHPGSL
# What was measured:
# [1] = biological target: T1, human SLC6A6 (solute carrier family 6 …); experiment: immunocytological staining of formalin-fixed HT-29 and LoVo cells, antibody 10 ug/mL; compared with 4B9b and 5H12d
# Experimental: (§1) Moreover, as controls for comparison purposes, the anti-SLC6A6 antibodies “4B9b” and “5H12d” disclosed in WO2012/029990 were also analyzed in the same manner. Hereinafter, antibodies produced by hybridoma cells are also represented by their respective clone numbers.
# (§2) HT-29 and LoVo cells were cultured to reach 80% confluency and then seeded onto cover slips coated with Cellmatrix Type I-A (Nitta Gelatin Inc., Japan). After culture for 2 days, the cells were fixed with 10% neutral buffered formalin (WAKO). After being treated with 0.3% (v/v) aqueous hydrogen peroxide for 20 minutes, the cover slips were washed three times with TBST and treated with TBST containing 5% (w/v) skimmed milk, followed by addition of the antibodies purified in (7) above at a concentration of 10 μg/mL and reaction at 4° C. for 16 hours. […] After washing three times with TBST, the cover slips were sealed with Mounting Medium (Vector Shield).
# [2] = biological target: T2, partial protein of the extracellular …; experiment: ELISA on coated recombinant SLC6A6 partial protein (residues 143-216), HRP-labelled secondary antibody
# Experimental: The recombinant protein obtained in (4) above (10 μg/ml) was dispensed in 100 μL volumes into MaxiSorp 96-well plates (Nunc) and adsorbed onto the plates at room temperature for 1 hour. After adsorption, each well was washed with TBS-T (TBS-T (25 mM Tris, 150 mM NaCl, 0.05% (v/v) Tween 20, pH 7.4) and charged with skimmed milk (GIBCO), which had been diluted to 5% with TBS-T, to conduct blocking for 30 minutes at room temperature. After each well was washed three times with 200 μL of TBS-T, mouse plasma samples collected from the tail vein were each diluted 1/2000-fold with TBS-T and added to the ELISA plates in a volume of 100 μL per well, followed by reaction at room temperature for 1 hour. Each well was washed three times with 200 μL of TBS-T.
# The thus obtained monoclonal antibody-producing hybridoma cells were cultured in ten 10 cm dishes to reach 90% confluency and then cultured for 10 days in a 1:1 mixture of HT medium (Invitrogen) and EX CELL Sp2/0 (Nichirei Bioscience Inc., Japan). The culture supernatants were collected and purified with a Protein G column. The Protein G column (GE Healthcare) was used in a volume of 0.5 mL relative to 100 mL of the culture supernatant. The cultured solutions were each passed at a flow rate of 1 to 3 ml/min through the Protein G column which had been equilibrated with PBS(−), followed by washing with 6 mL of washing buffer (25 mM Tris-HCl (pH 7.4), 140 mM NaCl, 10 mM KCl). Then, antibody proteins were eluted with 1 mL of elution buffer (0.1 M glycine-HCl (pH 2.5) or 0.1 M glycine-HCl (pH 3.0)) and neutralized with 0.5 M Tris-HCl (pH 7.4) to be within pH 7.0 to 7.4. The antibodies were concentrated with Amicon Ultra 30 (Millipore) and the buffer was replaced with PBS(−).
# [3] = biological target: T1, human SLC6A6 (solute carrier family 6 …); experiment: binding activity on HCT15 and HT-29 cells, antibody 10 ug/mL, anti-human IgG-HRP secondary antibody
# Experimental: In this case, the antibody concentration was set to 10 μg/mL.
# [4] = biological target: T1, human SLC6A6 (solute carrier family 6 …); experiment: immunocytological staining of formalin-fixed HT-29 and LoVo cells, antibody 10 ug/mL
# Experimental: as §1, §2
binding result [1],binding result [2],binding result [3],binding result [4],Binder
–,–,binds,–,"human-mouse chimeric 205 antibody (antibody, human IgG1, kappa, V domains shown, Human IgG1 / human kappa constant regions) VH: QVKLQQSGPELVKPGASVKMSCKASGYTFTSYVMHWVKQKPGQGLEWIGYINPYNDGTKYNEKFKGKATLTSDKSSSTAYMELSSLTSEDSAVYYCARRKAWFAYWGQGTLVTVSA VL: DIQMTQSPASQSASLGESVTITCLASQTIGTWLAWYQQKPGKSPQLLIYAATSLADGVPSRFSGSGSGTKFSFKISSLQAEDFVSYYCQQLYSTPLTFGGGTKLEIKR"
–,binds,–,binds,"monoclonal antibody produced from mouse-mouse hybridoma 422 (antibody, V domains shown, also called 422 antibody; antibody clone 422) VH: VQLQQSGPEVVKPGPSLRMSCKASGYFFTGNSMNWVKKTHGRSLEWIGLIDLSNGETRFNQKFKGKATLTVDKSSGTAYMELLNLTSEDSAVYYCASRSAMIMPCFSHWGQGTLVTVSA VL: DIVMTQSHNFMSTSIGDRVNITCKASQDVATAVAWFQQKPGQSPKLLIYWTSTRHTGVPDRFTGSGYGTDFTLTISHVQSEDLADYFCQQYDTYPYTFGGGTKLEIK"

# Further lines, the binder ahead of its results:
Binder,binding result [1],binding result [2],binding result [3],binding result [4]
"monoclonal antibody produced from mouse-mouse hybridoma 419 (antibody, V domains shown) VH: IQLQQSGPELVKPGASVKVSCKAFGYAFTRHNMYWVKQRHGKCLEWIGYIDPFNGGTSYNQKFKGKATLTVDKSSSTAYMHLNSLTSEDSAVYYCARVYGNYAWFAYWGQGTLVTVSA VL: DIVMTQSHKFMSTSVGDRVSITCKASQDVSTAVAWYQQIPGQSPKLLIYSSSYRYTGVPDRFTGSGSGTDFTFTISSVQAEDLAVYYCQQHYNTPWTFGGGTKLEIK",binds,binds,–,–
"monoclonal antibody produced from mouse-mouse hybridoma 205 (antibody, V domains shown) VH: VKLQQSGPELVKPGASVKMSCKASGYTFTSYVMHWVKQKPGQGLEWIGYINPYNDGTKYNEKFKGKATLTSDKSSSTAYMELSSLTSEDSAVYYCARRKAWFAYWGQGTLVTVSA VL: DIQMTQSPASQSASLGESVTITCLASQTIGTWLAWYQQKPGKSPQLLIYAATSLADGVPSRFSGSGSGTKFSFKISSLQAEDFVSYYCQQLYSTPLTFGGGTKLEIK",binds,binds,–,–
"monoclonal antibody produced from mouse-mouse hybridoma 303 (antibody, V domains shown) VH: VQLQQPGAEFVKPGTSVKLSCKASGYNFTRYWINWVKLRPGQGLEWIGNIYPATNGINYNEKFKSKATLTVDTFSSTAYMQLSSLASEDSGLYYCARCKTMLSRCAWFPYWGQGTLVTVSA VL: DIQMTQTTSSLSASLGDRVTINCRASQDISNYLNWYQQKPDGTVKLLIYDTSRLHSRVPSRFSGSGSGTDYSLTISNLEQEDIATYFCQQGNMLPWTFGGGTKLEIK",binds,binds,–,–
